# In the domain aggregation screens of Martell et al. (2025):
# Assay: soluble fraction after stress (log2 fold change); higher = more stays soluble; pooled small domains, quantitative proteomics
# Settings: stress: pH 4
# In short: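 Values are log2 fold changes, and higher ones mean more of the domain stayed soluble. Each fold change reflects the soluble amount of a domain after acid stress and is taken as a measure of aggregation propensity. The stress was pH 4, applied to pooled custom libraries of small protein domains analysed by high-throughput quantitative proteomics.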
row,Sequence,soluble fraction (log2)
1,HMDINIETLNYYVGKAKIPLSELRISVKNIDLFLSGEKQPTFNQLSSIAKKLNIPTGLLLLDESIEV,-1.34
2,HMDIPGITAVKPQAAFYMFPKIDVKKFNIVNDEKFALDLLQDKKILIVQGSGFNWKQPDHFRVV,0.115
3,HMDIRVAHVDDDMSFGEAFAQARSQVGPGGVFEWHGKLYGTYTAEEWASMSPAERSQYQQAVFN,0.105
4,HMDIVLPFSFAKRHGVVLSERQGETELLYLKGLPVRVLAEARRVLRQEFTVRQVEQAVFDKALSESYQN,-0.591
5,HMDIYLDDINRKILHLLSQGVKTKSLRDYIDLSMSAIEKRKKHLKDLFLIEDGKDETLLSEARKKGF,-0.398
6,HMDKAGWLPARVRLADYPALKQLAWQVQGVDELTPREALGIYERNWRHLDEAALLPRERNLIDALRLAFG,-0.16
7,HMDKEQVTFIFRDIDIALRSLDYPIKDIKNTLNIIKSEFSNSKSTELNEQKINFENILKEAISILENND,-0.969
8,HMDKFKDVGARIREARKVQKLSQADLAERLQISTSHMSDIENGKKNIGLDIFMRLTEALQVSADWLL,-0.567
9,HMDKFTYVVKKEDEQYQIKDILRHNFTFSSRLRKKLKQNNSIFLNGAETVGWATPKEGDIISVRLP,0.219
10,HMDKKEFGKRLKNLRIRNKMSQQAMADSLGYTSRSTINKIEEGINEMSYDKIVRLMELYGLSRPDLGLEPI,-0.157
11,HMDKKTMFNEALAKLVSYATAHDNLITMEDVKSFFNGLIDDDSQYKLIYDYLSINKIEIKGFT,-0.704
12,HMDKLEKRILDYLLQKSAIDGSTILKISHREMAMDLGTAREVVTRILKKLETGGFVRQGENYLEILK,-0.456
13,HMDKPIFTLRENEVLYWASMGKTYAEIATIVGISVRTVKFHMGNVVSKLGVSNARQAIRLGVELDLITPMQ,-1.76
14,HMDKSFYETFEKIGHGDFDKGLNHVWQHANDGNGTATLLLSKLFLEFGDLDNFEKYLNISAEQSNPVAMKI,-0.191
15,HMDKSNEVLMNHYRKQEINQAKKRLEEEKMSIIQVLQLTNKEVITTDELLEALYISKEQLLDEIINTTQ,-1.02
16,HMDKSPVLQLNRDVPAGQQISADDFRTVEIGADGAFRSVPSSDLNAMVGSYAKVRLIAGTLLAREALQSG,-0.0884
17,HMDKSRPVLRVGDSGDWVSKLQTALLEFGYRVAVDGVFGEHTKSAVVHFQNGRRLIADGVVGNLTWDALL,-0.968
18,HMDKWFPVSSDHKVQVGDYLRTADGLVKVEATHNEYGTFYGKIITAIHDDVVKGETYEYRIDDVQVLA,-1.77
19,HMDLAPLQTVDIAINYAKAAELAAILKSSEGGILSDRGGVTVDERTNTLLIRDTLESIDEARKTI,-0.4
20,HMDLATQHAAKVNAAILAARRFEREGSWRQVAAKYSEALQLMPGNEQASRGYQQAMAMLDERD,0.41
21,HMDLDSGVAVLRTLMSQHNLQTDDFQNEIGGKSMVSMILNGTRKLSKNHIQALSGRFNLSPALFF,-0.494
22,HMDLEELSNKMNNVFESLSSDLRDIIIMSDIEGLSYEEISHKINIPIGTVRSRLHRARDLMVRVIKEN,-0.713
23,HMDLGEQIIEKLRAAGGFLAITDKSPAEEIYELFATSKKNYKKAVGGLYKKGLLVIEDDGIRLTPAGR,≥ 0.43

row,Sequence,soluble fraction (log2)
1,HMDLHERISSVLLGTGKSNDELAQILGVNKNTISAYKNKHGDLKGIVLEGIVKHFDINPVWLLTGSGTR,0.0745
2,HMDLKSLEFAIVENVQRHDLNPLEEAQGYKRLIDEFSYDQDKVSKFIGKSRSYITNSLRLLNLPLEVLEF,-0.541
3,HMDLKTNSQLINELEKKIKRPFDREIKNYLNKNLSTDRMISNNEIDKIILFYSGNNEIPNIEKISLILNDN,0.0193
4,HMDLPATVPNLEGLTEVTARNKLTVAGLSLGEVKEVESDKEKGTVVGQSIAYGKRVTKGTKVDIEISSGK,0.318
5,HMDLPDTLSMPNALKVLEDNGFPTSKAKLYKMTSQEQIPFMKYGNKLVFSRKALIEWAHKQLV,0.301
6,HMDLPREKRIEIGLTYIYGIGLKTSQKILAATGIDPNTRVKDLDETTVSKLREYIDHNYRVEGELRS,-0.217
7,HMDLSLQTFNELKTELTNNKITIDQFSEKINEFDITSDIFEISRELFLDDTLSLEDYLVVIENVLIN,-0.782
8,HMDLSQTVQAKALARVNVREGAGTHFKSLGKLKKGELLPVFRVGNSWASIWWKGRVAYVHTDYLRFESA,-0.153
9,HMDLTKLFDHDSEYGKSYVFGKITDEMIARAEQTLGYRMPASYIELLKVQNGGMISDELDESWLTTIYGIG,-0.932
10,HMDMAYEVVKAFHDLQDYKDVKGGKVYHHYDVGDTYPRQGLDPAPDETRIEELLSSGNAQGVPLIAEV,-0.219
11,HMDMNVQNYRGLSLDRAKKLISDLGLKYEVVGTGDSVVKQVPSSGSRMSKENGRIILYTENVEDA,0.278
12,HMDMPLIGTAIRGWGIISPAQQETLIKMSILTVEDLAAINDEGIKRIGMGGLDLKNKAKAWLLQLK,-0.00985
13,HMDMRLADLIGRDGITITFMRPSGKVEIDGEIYDAVSDVGLIDKNEEVEVIKFENAQLVVTKKNKN,0.108
14,HMDMSVDQFNQGIRGSELYQQFIHGRGLQQPDGKTREWTDADRNAWRRTLEASGVRIPDGMKIDNAGNLNE,-0.052
15,HMDNEIIEEEKITTLMITHNMRDAIKYGNRLIMLNEGRVIFDISGEEKKNLTVQELLEKFEK,0.22
16,HMDNEIMYPIQINGKVRAELFVSTERAMDKQYVLEQAKANEKIQGYLEGNRLVKEIFVPKRIVNLVIAP,0.184
17,HMDNIEIGNRIREIRIKKNISVFELAYRTKTSQSHIYQIEGGSQNMSIELLFKIADTLETDPNTILGV,-2.25
18,HMDNIPAHIKAKIINYVNRNYPGAIIKDIERKSNGRYEAEIVYNNREYDLLFDAQGNFISASLDDK,-0.32
19,HMDNNFIQSLYPIAIGISKNQLDPWDLINGWVEYYLKNKEKYINHPNLKAVAVLKMKGLLIDHFRKS,-1.96
20,HMDNPKGNLQEAVQAKGNEPIEYRVLNVDGPDHAREFKIAVFIGGKRKGTGVGNSKKKAEEIAAEKAFKRM,-0.189
21,HMDNPVPVIITDQNFQPQLWKNVGVPTDTLFHELSAANQRKLENLMKTMIQTPLTDNGKISGYAFYSK,0.152
22,HMDNREKLRQEFLENLKELQEQNDIPQQEIDRVILDYDGVAEFLEDEGALKRYGGQLVDMTAYRAGAIPS,-2
23,HMDNRLFKMLYYLLDKERATAPELAAEFEVSTRTIYRDVEALSSAGIPIYAEPGRNGGIYLLQD,-1.1

row,Sequence,soluble fraction (log2)
1,HMDNTSNVEKTLRFIRQRGKVSRKEVETLLGSSKFPAISALNELLAENKIVKTGSGPAVRYSVS,0.018
2,HMDNVINDGMQVRFTGNVDINGTPLKIYDRIYTAEGISDDTVVLMLGNDVYARVYLSDVVPAD,-0.275
3,HMDNWLSGLAVEADRMILTQPGEVFDRLSRAFEATLIRRALASTGGRRIEAAHLLGIGRNTITRKIQDLGL,-1.45
4,HMDPDARQDAEVWLLDFLSAGPRTAQEIFTAARVEGHTRVTVKRAKATAGIQSVKQDFDGPWVWVLPGSG,-0.932
5,HMDPFAYEVKVTDLAAGSSEIRTVYTEQGSFNIPSGMSGNLKIQVRSASMYDEVEPSDWYTIGEEDIN,-0.461
6,HMDPLASLTPREREVLSLMAQGLSNLAVAERLVVSAGAVEKHISSIFTKLDLAPSEHEHRRVLAVLRYVAG,-2.09
7,HMDPPISNDARNAINAKLMKFSELHPNEMKKLVEAYKKEFKVSKISPITLARQGEFLSHAISKIDDT,-0.0331
8,HMDPQDGTVKFFNGARGFGFITPDGGGADVFVHVSAVERAGLTQLVEGQRVNFQTLPDTKGKGPKAVNLKV,-0.531
9,HMDPSDQLYTVPPSAEGLRLDLFLVQHVPHMTRALATQLTGAGQVRVNGRRAKKGDRLPSGAQVRLEQAP,-0.138
10,HMDPSHGESRENLDIMRIIDETHLEYPSWGYRKMTDHLRANHGYTINRKRVRRLMRLMDIIALFPG,-0.908
11,HMDPSVTGLLTRLGISPQTAQELAGQYEEPYILEKIAIVEAHPEYVKNAAGFVITALQEDWKD,-1.37
12,HMDPTHDMHFLVKDQVTGQPLPNMPYRLQLDNGQTLTGRTDALGMTEKISGHSPHIASIEVPY,0.025
13,HMDPVILDINSVKALLGISNKADFMAELSRLVVTEGDKKMIIPLAKEVGIDNVAVYKRNEIENISNYK,-0.297
14,HMDQAEDVLSIPVDALMRGNQVYIKDDTVTEQQGPIPAGFKAVEVETGLISDSYVEIKSGLSEGDTVYVAE,-0.661
15,HMDQESFGYFHVKYADVKQVADLVQKLNIPAVTWADERTRRLVALGSPATLQRISQVLNMVDL,-0.476
16,HMDQHPYGEDSFRGDNPPAGFDIKGNEDSMKFHEPSSPWYGRTIAEVWFRSAAAAEAAGFVNAV,-0.0254
17,HMDQINNDLRKLIEFLPEDQKTVLKMRHFQEMSFKEIAKATGVSINTALGRMRYALINLRKLIEENEI,-0.903
18,HMDQPLIEPLSERELEVLSLIAAGYSNAEIAERLVIAVGTVKRHINNLYGKLGAGSRTQALAIAREIGLM,-0.661
19,HMDQTKYDAIITEAKKLTAEGQYKESEEKLATIPVSDLGKPHYSIVKETVEKLNNQNNEGLKRQEEVAVE,-0.0626
20,HMDQVLHQLVEVLRRSEIRISPAETLDAFKVLRNVGIDNKSLLREALALTLAKSIHEKIIFYETFDEFFT,-1.08
21,HMDRADIDAVDAEWVRATMERLGLRAKHIESHTGISKSTLSILLNGHRPLTRWHKIAFYYLFKHIEF,-1.82
22,HMDRDQNVEEGQRSLKSEMGRFGLLIANMDDLAERVNYGNAEDMYAAIGAGDLRLMQVVHAAEEMLG,-0.61
